The results in this text go back to publication PMC10703783, “Programmed cell death 11 modulates but not entirely relies on p53-HDM2 loop to facilitate G2/M transition in colorectal cancer cells” (Oncogenesis, 2023).

B2: His-S-tagged PDCD11 (1033-1431) (domain or fragment, human, UniProt Q14690 1033-1431, looked up)
chain: LSIGDMVTGTVKSIKPTHVVVTLEDGIIGCIHASHILDDVPEGTSPTTKLKVGKTVTARVIGGRDMKTFKYLPISHPRFVRTIPELSVRPSELEDGHTALNTHSVSPMEKIKQYQAGQTVTCFLKKYNVVKKWLEVEIAPDIRGRIPLLLTSLSFKVLKHPDKKFRVGQALRATVVGPDSSKTLLCLSLTGPHKLEEGEVAMGRVVKVTPNEGLTVSFPFGKIGTVSIFHMSDSYSETPLEDFVPQKVVRCYILSTADNVLTLSLRSSRTNPETKSKVEDPEINSIQDIKEGQLLRGYVGSIQPHGVFFRLGPSVVGLARYSHVSQHSPSKKALYNKHLPEGKLLTARVLRLNHQKNLVELSFLPGDTGKPDVLSASLEGQLTKQEERKTEAEERDQKG
notes: source: expressed and purified

What all share (experiment): pull-down; GST pulldown in vitro; GST-tagged p53 or HDM2 (full length or truncations) as bait, His-S-tagged PDCD11 (full length or truncations) as prey
Holding throughout (conditions): both partners purified

In assay [1] the target is T1, His-S-tagged full-length PDCD11 (programmed cell death 11) (human, UniProt Q14690 1-1871).
T1 construct: programmed cell death 11 (PDCD11), human, Gene ID 22984, 1871 amino acids, full length; also called PDCD11-FL; ALG-4; source: expressed and purified
T1 sequence (Q14690 whole entry): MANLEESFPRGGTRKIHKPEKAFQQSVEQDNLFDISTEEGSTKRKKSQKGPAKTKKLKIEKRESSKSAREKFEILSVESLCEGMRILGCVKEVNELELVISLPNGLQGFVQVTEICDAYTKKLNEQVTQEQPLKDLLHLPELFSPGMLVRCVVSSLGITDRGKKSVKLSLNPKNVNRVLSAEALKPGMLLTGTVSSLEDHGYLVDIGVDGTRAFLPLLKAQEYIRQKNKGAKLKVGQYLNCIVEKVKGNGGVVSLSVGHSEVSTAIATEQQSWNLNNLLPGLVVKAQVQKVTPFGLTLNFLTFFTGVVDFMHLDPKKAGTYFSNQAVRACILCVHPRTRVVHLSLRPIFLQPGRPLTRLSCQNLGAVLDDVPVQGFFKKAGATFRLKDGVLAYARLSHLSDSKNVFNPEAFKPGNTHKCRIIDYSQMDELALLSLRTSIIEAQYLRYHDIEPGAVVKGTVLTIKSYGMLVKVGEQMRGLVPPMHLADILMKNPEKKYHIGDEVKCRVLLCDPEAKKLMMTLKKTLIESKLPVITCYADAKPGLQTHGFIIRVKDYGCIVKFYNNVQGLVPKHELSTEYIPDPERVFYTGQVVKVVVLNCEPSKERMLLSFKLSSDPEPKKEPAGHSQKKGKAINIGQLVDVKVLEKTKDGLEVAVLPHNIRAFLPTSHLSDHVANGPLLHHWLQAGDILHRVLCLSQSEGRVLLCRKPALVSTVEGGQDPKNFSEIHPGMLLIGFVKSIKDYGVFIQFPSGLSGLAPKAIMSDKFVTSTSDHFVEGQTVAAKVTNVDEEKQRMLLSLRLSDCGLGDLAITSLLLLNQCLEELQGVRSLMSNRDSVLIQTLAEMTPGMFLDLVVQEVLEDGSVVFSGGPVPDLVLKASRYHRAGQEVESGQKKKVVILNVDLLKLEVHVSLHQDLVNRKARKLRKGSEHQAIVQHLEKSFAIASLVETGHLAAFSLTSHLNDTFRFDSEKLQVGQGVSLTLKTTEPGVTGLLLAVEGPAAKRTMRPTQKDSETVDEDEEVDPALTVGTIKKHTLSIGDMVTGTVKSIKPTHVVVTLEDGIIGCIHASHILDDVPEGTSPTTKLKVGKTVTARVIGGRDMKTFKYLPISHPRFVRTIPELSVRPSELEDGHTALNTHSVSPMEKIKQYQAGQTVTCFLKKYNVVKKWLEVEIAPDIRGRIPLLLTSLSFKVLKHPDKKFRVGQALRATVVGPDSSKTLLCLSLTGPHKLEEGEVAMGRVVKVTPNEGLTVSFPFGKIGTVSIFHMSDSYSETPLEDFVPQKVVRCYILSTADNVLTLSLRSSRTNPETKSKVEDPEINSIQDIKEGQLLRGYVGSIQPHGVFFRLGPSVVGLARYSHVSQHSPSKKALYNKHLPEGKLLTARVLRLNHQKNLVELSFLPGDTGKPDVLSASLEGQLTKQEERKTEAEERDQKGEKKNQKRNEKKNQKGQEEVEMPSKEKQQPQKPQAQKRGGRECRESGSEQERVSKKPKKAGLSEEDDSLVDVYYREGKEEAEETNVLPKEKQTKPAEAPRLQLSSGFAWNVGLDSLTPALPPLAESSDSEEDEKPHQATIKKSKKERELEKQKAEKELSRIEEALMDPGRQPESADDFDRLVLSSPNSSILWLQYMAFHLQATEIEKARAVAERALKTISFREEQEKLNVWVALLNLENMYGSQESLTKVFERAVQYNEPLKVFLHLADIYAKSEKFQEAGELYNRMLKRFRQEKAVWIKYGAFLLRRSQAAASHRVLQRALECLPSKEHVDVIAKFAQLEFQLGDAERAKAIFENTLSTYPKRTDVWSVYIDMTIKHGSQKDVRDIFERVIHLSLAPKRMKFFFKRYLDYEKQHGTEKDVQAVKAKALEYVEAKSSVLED

Assay [2] concerns the target B2.
Assay [3] has as its target T2, GST-tagged full-length HDM2 (UniProt Q00987-11 1-497).
T2 construct: HDM2, full length; also called HDM2-FL; GST-HDM2; source: expressed and purified

B1: GST-tagged HDM2 (349-497) (domain or fragment, UniProt Q00987-11 349-497, looked up)
chain: EKAKLENSTQAEEGFDVPDCKKTIVNDSRESCVEENDDKITQASQSQESEDYSQPSTSSSIIYSSQEDVKEFEREETQDKEESVESSLPLNAIEPCVICQGRPKNGCIVHGKTGHLMACFTCAKKLKKRNKPCPVCRQPIQMIVLTYFP
notes: as for B2
Regarding B1, the binding result in assay [1] and in assay [2] was “binds” in each case. For the molecule B2, the binding result in assay [3] is on record as “binds”.
